Test results from publication PMC4358367, “Structural basis of diverse membrane target recognitions by ankyrins” (eLife, 2014).

Tests used:
[1] = molecular target: T1, Nfasc_ABD (28-residue fragment of the neurofascin cytoplasmic tail, residues 1187–1214); experiment: ITC; conditions: chain shown with the change;; parent: 0.21 ± 0.02
T1 chain: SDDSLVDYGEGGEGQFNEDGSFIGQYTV

[2] = molecular target: T2, Nav1.2_ABD (ankyrin binding domain of Nav1.2, residues 1035–1129); experiment: ITC; conditions: chain shown with the change
T2 chain: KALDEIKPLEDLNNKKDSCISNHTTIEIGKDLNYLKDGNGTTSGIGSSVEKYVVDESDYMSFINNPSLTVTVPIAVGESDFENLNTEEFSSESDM

[3] = molecular target: T2, Nav1.2_ABD (ankyrin binding domain of …); experiment: ITC; conditions: chain shown with the change
[4] = molecular target: T3, AnkG_repeats (Rattus norvegicus, UniProt O70511); experiment: ITC binding to AnkG_repeats WT; conditions: 25°C, 50 mM Tris, 100 mM NaCl, 1 mM EDTA, 1 mM DTT, pH 7.5, one-site binding model, AnkG_repeats WT
T3 construct: thioredoxin-His6 (N); made in house; host or cells: Escherichia coli BL21 (DE3)
T3 sequence (O70511 38-855): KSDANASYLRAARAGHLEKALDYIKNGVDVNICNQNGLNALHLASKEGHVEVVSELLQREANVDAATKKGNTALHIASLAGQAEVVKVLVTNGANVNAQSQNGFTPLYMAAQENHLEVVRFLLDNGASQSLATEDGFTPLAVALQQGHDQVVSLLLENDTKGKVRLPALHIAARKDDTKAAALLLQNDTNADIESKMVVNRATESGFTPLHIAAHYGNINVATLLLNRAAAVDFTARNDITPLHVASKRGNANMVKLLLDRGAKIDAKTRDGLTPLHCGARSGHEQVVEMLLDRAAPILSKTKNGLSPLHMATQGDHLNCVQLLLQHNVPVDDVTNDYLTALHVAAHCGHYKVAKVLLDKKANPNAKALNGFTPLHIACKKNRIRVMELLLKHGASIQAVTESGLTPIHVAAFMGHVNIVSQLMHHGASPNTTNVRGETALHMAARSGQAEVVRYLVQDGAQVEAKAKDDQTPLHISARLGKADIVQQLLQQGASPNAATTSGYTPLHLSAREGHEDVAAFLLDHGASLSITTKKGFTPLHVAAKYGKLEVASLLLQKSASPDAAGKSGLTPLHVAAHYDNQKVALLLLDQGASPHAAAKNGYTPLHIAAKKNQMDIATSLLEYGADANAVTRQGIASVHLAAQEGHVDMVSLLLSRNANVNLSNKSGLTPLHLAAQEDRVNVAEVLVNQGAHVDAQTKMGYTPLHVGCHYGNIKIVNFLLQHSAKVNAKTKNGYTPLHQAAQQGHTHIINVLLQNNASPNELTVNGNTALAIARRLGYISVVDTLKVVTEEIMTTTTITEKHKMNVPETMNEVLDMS
Description: The coding sequences of AnkB_repeats (residues 28–873) were PCR amplified using the full-length human 220 kDa AnkB as the template. The coding sequences of the AnkR constructs, including AnkR_repeats (residues 42–853), and the full length AnkR C-terminal domain (residues 1529–1907), were PCR amplified from a mouse muscle cDNA library. The coding sequence of AnkG_repeats (residues 38–855) were PCR amplified using the full-length rat 190 kDa AnkG as the template. The fusion construct of AnkR_AS and AnkB_repeats was made by standard two-step PCR with a coding sequence of thrombin recognition residues ‘GSLVPRGS’ as the linker. This construct was used to crystallize and determine the complex structure. The same strategy was used in making other fusion constructs, including the Nav1.2_ABD-C/AnkB_repeats_R1–9 fusion construct containing residues 1103–1129 from mouse Nav1.2 and human AnkB residues 28–318 followed by a capping sequence corresponding to the αB of R24 (residues 814–822) and the AnkR_AS/AnkG_repeats fusion construct. For truncation mutations of ANK repeats constructs, the same capping sequence was added to the appropriate region of the C-terminus of each construct for protein stabilization. Mouse Nav1.2 (NP_001092768.1) and mouse neurofascin (CAD65849.1) were used here for studying their interaction with ankyrins. Peptides for mouse KCNQ2 (NP_034741.2, residues 826–845) and mouse Cav1.3 (NP_083257.2, residues 2134–2166) were commercially synthesized. For simplicity, we used human 220 kDa AnkB for the amino acid numbering throughout the manuscript. For the corresponding point mutations made on AnkG_repeats, each residue number should be increased by 10. All point mutations were created using the Quick Change site-directed mutagenesis kit and confirmed by DNA sequencing. […]
Isothermal titration calorimetry (ITC) measurements were carried out on a VP-ITC MicroCal calorimeter (MicroCal, Northampton, MA) at 25°C. […] The titration data were analyzed using the program Origin 7.0 and fitted by the one-site binding model.

[5] = molecular target: T4, AnkG_repeats (24 ANK repeats of rat 190 kDa ankyrin-G, residues 38–855), O70511; experiment: ITC; conditions: chain shown with the change
T4 chain: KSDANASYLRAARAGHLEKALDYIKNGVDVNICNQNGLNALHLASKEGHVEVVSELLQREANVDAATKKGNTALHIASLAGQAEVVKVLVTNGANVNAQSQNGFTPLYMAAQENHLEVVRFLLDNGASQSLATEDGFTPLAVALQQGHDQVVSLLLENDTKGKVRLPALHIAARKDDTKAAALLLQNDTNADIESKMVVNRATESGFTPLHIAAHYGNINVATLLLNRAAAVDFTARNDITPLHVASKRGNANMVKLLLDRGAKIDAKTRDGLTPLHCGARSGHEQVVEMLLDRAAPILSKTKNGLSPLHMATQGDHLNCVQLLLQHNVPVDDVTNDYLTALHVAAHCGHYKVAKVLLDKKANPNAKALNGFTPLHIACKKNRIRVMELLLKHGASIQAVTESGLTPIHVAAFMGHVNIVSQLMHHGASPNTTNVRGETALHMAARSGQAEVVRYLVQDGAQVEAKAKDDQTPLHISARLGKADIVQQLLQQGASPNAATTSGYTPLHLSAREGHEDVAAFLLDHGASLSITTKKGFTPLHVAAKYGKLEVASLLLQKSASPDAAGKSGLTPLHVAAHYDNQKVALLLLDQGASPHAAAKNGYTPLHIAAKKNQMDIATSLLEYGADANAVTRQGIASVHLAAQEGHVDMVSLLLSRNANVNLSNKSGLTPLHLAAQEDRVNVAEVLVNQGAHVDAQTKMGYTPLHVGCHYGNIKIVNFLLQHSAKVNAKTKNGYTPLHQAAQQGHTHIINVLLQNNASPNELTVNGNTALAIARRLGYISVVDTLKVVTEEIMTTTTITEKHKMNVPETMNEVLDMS

B1: AnkG_repeats (24 ANK repeats of rat 190 kDa ankyrin-G, residues 38–855), O70511 I267Q; L300Q (protein)
chain: KSDANASYLRAARAGHLEKALDYIKNGVDVNICNQNGLNALHLASKEGHVEVVSELLQREANVDAATKKGNTALHIASLAGQAEVVKVLVTNGANVNAQSQNGFTPLYMAAQENHLEVVRFLLDNGASQSLATEDGFTPLAVALQQGHDQVVSLLLENDTKGKVRLPALHIAARKDDTKAAALLLQNDTNADIESKMVVNRATESGFTPLHIAAHYGNINVATLLLNRAAAVDFTARNDQTPLHVASKRGNANMVKLLLDRGAKIDAKTRDGQTPLHCGARSGHEQVVEMLLDRAAPILSKTKNGLSPLHMATQGDHLNCVQLLLQHNVPVDDVTNDYLTALHVAAHCGHYKVAKVLLDKKANPNAKALNGFTPLHIACKKNRIRVMELLLKHGASIQAVTESGLTPIHVAAFMGHVNIVSQLMHHGASPNTTNVRGETALHMAARSGQAEVVRYLVQDGAQVEAKAKDDQTPLHISARLGKADIVQQLLQQGASPNAATTSGYTPLHLSAREGHEDVAAFLLDHGASLSITTKKGFTPLHVAAKYGKLEVASLLLQKSASPDAAGKSGLTPLHVAAHYDNQKVALLLLDQGASPHAAAKNGYTPLHIAAKKNQMDIATSLLEYGADANAVTRQGIASVHLAAQEGHVDMVSLLLSRNANVNLSNKSGLTPLHLAAQEDRVNVAEVLVNQGAHVDAQTKMGYTPLHVGCHYGNIKIVNFLLQHSAKVNAKTKNGYTPLHQAAQQGHTHIINVLLQNNASPNELTVNGNTALAIARRLGYISVVDTLKVVTEEIMTTTTITEKHKMNVPETMNEVLDMS
[1]
  Kd: 2.8 µM
[2]
  Kd: 0.22 µM
[3]
  Kd: 0.22 µM

B2: ABD-N (1035 - 1102): N-terminal 68-residue fragment of Nav1.2 loop 2 (residues 1035–1102) (protein, UniProt Q99250 1035-1102, looked up, fragment)
chain: ALDEIKPLEDLNNKKDSCISNHTTIEIGKDLNYLKDGNGTTSGIGSSVEKYVVDESDYMSFINNPSLT
[4]
  Kd: 8.1 ± 1.1 µM
[4]; listed as ABD-N
  Kd: ~8 µM

B3: Nav1.2_ABD (ankyrin binding domain of Nav1.2, residues 1035–1129) E1112Q (protein)
chain: KALDEIKPLEDLNNKKDSCISNHTTIEIGKDLNYLKDGNGTTSGIGSSVEKYVVDESDYMSFINNPSLTVTVPIAVGQSDFENLNTEEFSSESDM
[5]
  Kd: 4.6 µM

B4: Nav1.2_ABD (ankyrin binding domain of Nav1.2, residues 1035–1129) E1112A (protein)
chain: KALDEIKPLEDLNNKKDSCISNHTTIEIGKDLNYLKDGNGTTSGIGSSVEKYVVDESDYMSFINNPSLTVTVPIAVGASDFENLNTEEFSSESDM
[5]
  Kd: 4.3 µM
